Consider 12 molecules from PMC6879610 (Nature Communications, 2019).

What all share (settings): both partners purified
The target in experiment [1] is ovalbumin (Gallus gallus (species assumed), UniProt P01012). Put plainly: ELISA; 250 ng antigen per well coated overnight at 4 °C in PBS; serial dilutions of antibody 1 h at 37 °C; detected with anti-human IgG Fc-HRP.
Experiment [2] concerns the target T1, MPER peptide PDT-081 (HIV-1, strain  (synthetic …)).
T1 construct: also called full-length MPER
The experiment in a line: BLI; Octet RED96; biotinylated peptide PDT-081 (7.5 μg/ml) on streptavidin biosensors; serial dilution of Fab, 5 min association, 5 min dissociation; PBS/0.002% Tween 20/0.01% BSA; KD as koff/kon. (In general: Biolayer interferometry detects binding as a change in optical thickness at a sensor tip.)
T1 sequence (P05877 655-684): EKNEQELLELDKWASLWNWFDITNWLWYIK

Experiment [3] has as its target T2, MPER peptide PDT-081 (HIV-1, strain  (synthetic …)).
T2 construct: also called PDT081pept
Put plainly: BLI; Octet RED96; biotinylated MPER peptide PDT-081 (7.5 ug/ml) captured on streptavidin biosensors; serial dilution of Fab, 5 min association, 5 min dissociation; PBS/0.002% Tween 20/0.01% bovine serum albumin; KD = koff/kon from five sensorgrams of the dilution series.
T2 sequence (P05877 655-684): as above

Experiment [4] concerns the target T1, MPER peptide PDT-081. Put plainly: ELISA; 250 ng antigen per well coated overnight at 4 °C in PBS; serial dilutions of antibody 1 h at 37 °C; detected with anti-human IgG Fc-HRP. On the technique in general: An ELISA detects its analyte on a solid surface through an enzyme-linked reagent.
In experiment [5] the target is T2, MPER peptide PDT-081. Put plainly: BLI; Octet RED96; biotinylated MPER peptide PDT-081 (7.5 ug/ml) captured on streptavidin biosensors; serial dilution of Fab, 5 min association, 5 min dissociation; PBS/0.002% Tween 20/0.01% bovine serum albumin; KD = koff/kon from five sensorgrams of the dilution series. This is another data set of the same source.
Experiment [6] has as its target T2, MPER peptide PDT-081. The description is as above. This is another data set of the same source.
Experiment [7] deals with T2, MPER peptide PDT-081. Described as above. This is another data set of the same source.
In experiment [8] the target is T2, MPER peptide PDT-081. The experiment is described as above. The source holds these as a separate data set.
Experiment [9] concerns the target T2, MPER peptide PDT-081. The experiment is described as above. This is another data set of the same source.

B1: 4E10 (antibody, V domains shown)
VH: QVQLVQSGAEVKRPGSSVTVSCKASGGSFSTYALSWVRQAPGRGLEWMGGVIPLLTITNYAPRFQGRITITADRSTSTAYLELNSLRPEDTAVYYCAREGTTGWGWLGKPIGAFAHWGQGTLVTVSS
VL: EIVLTQSPGTQSLSPGERATLSCRASQSVGNNKLAWYQQRPGQAPRLLIYGASSRPSGVADRFSGSGSGTDFTLTISRLEPEDFAVYYCQQYGQSLSTFGQGTKVEVK
notes: also called BnAb 4E10; mature 4E10
On to B1, for which the binding result in [1] is reported as “binds”.

B2: 4E10 L100cF (whole antibody) (antibody, V domains shown)
VH: QVQLVQSGAEVKRPGSSVTVSCKASGGSFSTYALSWVRQAPGRGLEWMGGVIPLLTITNYAPRFQGRITITADRSTSTAYLELNSLRPEDTAVYYCAREGTTGWGWFGKPIGAFAHWGQGTLVTVSS
VL: EIVLTQSPGTQSLSPGERATLSCRASQSVGNNKLAWYQQRPGQAPRLLIYGASSRPSGVADRFSGSGSGTDFTLTISRLEPEDFAVYYCQQYGQSLSTFGQGTKVEVK
For the molecule B2, the binding result in experiment [1] was “binds”.

B3: PGZL1 gVmDmJ Fab (Fab, V domains shown)
VH: QVQLVQSGAEVKKPGSSVKVSCKASGGTFSSYAISWVRQAPGQGLEWMGGIIPIFGTANYAQKFQGRVTITADKSTSTAYMELSSLRSEDTAVYYCAREGEGWFGKPLRAFEFWGQGTVITVSS
VL: not shown
notes: also called inferred germline PGZL1 Fab
A word on the Kd: it is a measure of binding affinity in units of concentration. Higher therefore signals a looser complex. B3 gave a Kd in experiment [2] of 64.4 nM.

B4: PGZL1 gVgDmJ Fab (Fab, V domains shown)
VH: QVQLVQSGAEVKKPGSSVKVSCKASGGTFSSYAISWVRQAPGQGLEWMGGIIPIFGTANYAQKFQGRVTITADKSTSTAYMELSSLRSEDTAVYYCAREGEGWFGEPLRAFEFWGQGTVITVSS
VL: not shown
In turn, B4 came in with a Kd in [2] of 148 nM.

B5: PGZL1 gVgDgJ Fab (Fab, V domains shown)
VH: QVQLVQSGAEVKKPGSSVKVSCKASGGTFSSYAISWVRQAPGQGLEWMGGIIPIFGTANYAQKFQGRVTITADKSTSTAYMELSSLRSEDTAVYYCAREGEGWFGEPLRAFDVWGQGTVITVSS
VL: not shown
One may read the koff as a measure of how fast the partners let go of each other. Low readings indicate a long-lived complex, high ones a short-lived complex. Broadly, the kon is the second-order rate constant of association. Low readings indicate slower complex formation, high ones faster complex formation. For B5, in experiment [3], the koff came to 0.00802 s⁻¹ and the kon came to 8550 M⁻¹ s⁻¹.

B6: PGZL1 gVgDgJ IgG (antibody, V domains shown)
VH: QVQLVQSGAEVKKPGSSVKVSCKASGGTFSSYAISWVRQAPGQGLEWMGGIIPIFGTANYAQKFQGRVTITADKSTSTAYMELSSLRSEDTAVYYCAREGEGWFGEPLRAFDVWGQGTVITVSS
VL: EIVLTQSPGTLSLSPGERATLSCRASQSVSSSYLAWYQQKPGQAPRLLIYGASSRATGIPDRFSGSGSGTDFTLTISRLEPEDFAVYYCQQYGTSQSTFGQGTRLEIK
Consider B6, for which the “fold increase in EC50” value in experiment [4] is 369 fold.

B7: PGZL1 gVmDmJ Fab (Fab, V domains shown)
VH: QVQLVQSGAEVKKPGSSVKVSCKASGGTFSSYAISWVRQAPGQGLEWMGGIIPIFGTANYAQKFQGRVTITADKSTSTAYMELSSLRSEDTAVYYCAREGEGWFGKPLRAFEFWGQGTVITVSS
VL: not shown
Take B7: in experiment [5], the koff turned out to be 0.000991 s⁻¹ and the kon was determined as 15400 M⁻¹ s⁻¹.

B8: PGZL1 gVgDgJ Fab (Fab, V domains shown)
VH: QVQLVQSGAEVKKPGSSVKVSCKASGGTFSSYAISWVRQAPGQGLEWMGGIIPIFGTANYAQKFQGRVTITADKSTSTAYMELSSLRSEDTAVYYCAREGEGWFGEPLRAFDVWGQGTVITVSS
VL: not shown
The molecule B8 gave a Kd in [2] of 938 nM.

B9: PGZL1 gVgDmJ Fab (Fab, V domains shown)
VH: QVQLVQSGAEVKKPGSSVKVSCKASGGTFSSYAISWVRQAPGQGLEWMGGIIPIFGTANYAQKFQGRVTITADKSTSTAYMELSSLRSEDTAVYYCAREGEGWFGEPLRAFEFWGQGTVITVSS
VL: not shown
In [6], B9 returned a dissociation rate constant (koff) of 0.00197 s⁻¹ and a kon of 13300 M⁻¹ s⁻¹.

B10: H4K3_SFS28EPE Fab (Fab, V domains shown)
VH: KVQLVQSGAELKKPWSSVRVSCKASGGEPESYAFNWVRQAPGQRLEWLGGIVPLVSSTNYAQRFRGRVTISADRSTSTVYLEMTGLTSADTAVYFCAREGEGWFGRPLRAFEFWGQGTLVTVST
VL: EIVLTQSPGTFALSPGERATLSCRASQSVSGGALAWYQQKAGQAPRLLIYDTSGRATGVPGRFSGSGSETDFSLTISRLEPEDFAVYYCQQYGTSQSTFGQGTRLETR
In [7], B10 displayed an equilibrium dissociation constant (Kd) of 15.1 nM, an off-rate (koff) of 0.000539 s⁻¹ and a kon of 35700 M⁻¹ s⁻¹.

B11: H4K3_RS73PE Fab (Fab, V domains shown)
VH: KVQLVQSGAELKKPWSSVRVSCKASGGSFSSYAFNWVRQAPGQRLEWLGGIVPLVSSTNYAQRFRGRVTISADPETSTVYLEMTGLTSADTAVYFCAREGEGWFGRPLRAFEFWGQGTLVTVST
VL: EIVLTQSPGTFALSPGERATLSCRASQSVSGGALAWYQQKAGQAPRLLIYDTSGRATGVPGRFSGSGSETDFSLTISRLEPEDFAVYYCQQYGTSQSTFGQGTRLETR
On to B11, for which, in experiment [8], binding was put at a Kd of 12.8 nM, the koff is 0.000509 s⁻¹ and the association rate constant (kon) amounted to 39700 M⁻¹ s⁻¹.

B12: H4K3_5M Fab (Fab, V domains shown)
VH: KVQLVQSGAELKKPWSSVRVSCKASGGEPESYAFNWVRQAPGQRLEWLGGIVPLVSSTNYAQRFRGRVTISADPETSTVYLEMTGLTSADTAVYFCAREGEGWFGRPLRAFEFWGQGTLVTVST
VL: EIVLTQSPGTFALSPGERATLSCRASQSVSGGALAWYQQKAGQAPRLLIYDTSGRATGVPGRFSGSGSETDFSLTISRLEPEDFAVYYCQQYGTSQSTFGQGTRLETR
In experiment [9], B12 showed a Kd of 23.4 nM, a koff of 0.000674 s⁻¹ and an association rate constant (kon) of 28800 M⁻¹ s⁻¹.
